The subject of assay [1] is pHrodo-red labeled, dexamethasone treated thymocytes. Briefly: Luminal degradation of engulfed thymocytes in CER-transduced Ba/F3 cells (time-lapse imaging). In kind it is cell-based. As to conditions: FACS purified after overnight co-culture. On the procedure:
Luminal degradation in CER-transduced cells was also evaluated following engulfment. Ba/F3 cells transduced with CER21 or CER116 were co-cultured with pHrodo-red labeled, dexamethasone treated thymocytes overnight and subsequently purified by FACS. Target cell destruction was visualized by time-lapse imaging and quantified over time (FIG. 85F). […] CER116-harboring Ba/F3 cells (top) catabolize target cells, allowing cells to return to homeostasis and resume immune responsiveness. The addition of a TRAF6 signaling domain to the CER construct promotes rapid destruction of engulfed material.

Assay [2] concerns staurosporine treated Jurkat cells. Kind of assay: Phagocytosis and cytolysis of staurosporine treated Jurkat cells by CER21+ human primary B cells. In kind it is cell-based. On the procedure: One day prior to setting up the phagocytosis assay, Jurkat human B lymphocytes were cultured in complete RPMI 1640 growth media supplemented with 10% fetal bovine serum and 1% penicillin-streptomycin in a 6 well plate and treated with 1 mM staurosporine for three hours to induce apoptosis. Jurkat cells were washed twice in lx PBS to remove excess staurosporine and then stained with pHrodo Red (1 ng/μ.1 in PBS) for 15 minutes at room temperature. The Jurkat cells were supplemented with growth media, washed once to remove excess pHrodo Red, and plated on flat bottom 96 well plates at approximately 250,000 cells/well in RPMI 1640 complete media.
Transduced CER21+ human primary B cells were washed once with 1×PBS and stained with 1 μM CELLTRACE Violet in PBS for 10 minutes at 37° C. The CER21+ human primary B cells were supplemented with growth media, washed once with 1×PBS to remove excess CELLTRACE Violet, and plated onto 96 well plate at approximately 50,000 cells/well in RPMI 1640 complete media. Human CER21+primary B cells and Jurkat cells were co-cultured at a target cell to effector cell ratio of 5:1 at 37° C. for 3 hours. After incubation, the co-culture plate was then centrifuged, and the media replaced with PBS supplemented with 2% fetal bovine serum, pH 9. Phagocytic events were quantified by fluorescent microscopy (KEYENCE BZ-X710 fluorescence microscope, 20X objective). […] Solid arrows show engulfment activity. Dashed arrows show cytolytic activity.
Apoptotic cells were quantified from fluorescent images using automated software, and the number of apoptotic cells per high power view (FIG. 20A) and total fluorescence emission per high power view (FIG. 20B) were calculated using pH indicator dye.

The subject of assay [3] is CER-transduced CD4+ T cells. Briefly: Mass cytometry (CyTOF) with viSNE marker analysis of CER-transduced CD4+ T cells. Format: cell-based, human. The text has this:
CD4+ T cells were transduced with lentiviral vector comprising CER104, CER116, or CER117 nucleic acid. CER104 (SEQ ID NO:133) comprises a Tim4 binding domain, Tim4 transmembrane domain, and an engulfment signaling domain comprising a primary engulfment signaling domain comprising a TLR8 signaling domain and a secondary engulfment signaling domain comprising a DAP12 signaling domain. CER116 (SEQ ID NO:143) comprises a Tim4 binding domain, Tim4 transmembrane domain, and an engulfment signaling domain comprising a primary engulfment signaling domain comprising a TRAF6 signaling domain and a secondary engulfment signaling domain comprising a TLR8 signaling domain. CER117 (SEQ ID NO:144) comprises a Tim4 binding domain, Tim4 transmembrane domain, and an engulfment signaling domain comprising a primary engulfment signaling domain comprising a TLR8 signaling domain and a secondary engulfment signaling domain comprising a TRAF6 signaling domain. CER-transduced CD4+ T cells were co-cultured with E7 TCR-transduced CD8+ T cells and HPV+SCC152 target cells and interrogated by mass cytometry (CyTOF) with viSNE for visualization of high dimensional single cell data (FIGS. 82-84). Intact CER-transduced CD4+ T cells are shown in plots displaying tSNE1 (horizontal) and tSNE2 (vertical) axes. 27 intracellular markers were used for the viSNE analysis. Each dot represents a single cell. […] Red represents high expression and blue represents low expression for each marker. Populations of CD4^+ T cells were generated using a clustering algorithm from all 27 markers and overlaid onto the viSNE map. […] Populations of CD4^+ T cells were generated using a clustering algorithm from all 18 markers and overlaid onto the viSNE map (FIG. 83A). […] Color plots by 18 intracellular markers (CD28, CCR7, CD45RA, PD1, CD127, Perforin, CD49d, CD85j, CD38, CD27, Granzyme B, CD57, CD25, CD69, CD154, CD56, HLA-DR, and TCRγδ) show the phenotype across viSNE ‘islands’ (FIG. 83B). Red represents high expression and blue represents low expression for each marker. Highlighted region with arrow indicates cells expressing T cell activation marker CD69. Populations of CD4^+ T cells were generated using a clustering algorithm from 18 intracellular markers (CD28, CCR7, CD45RA, PD1, CD127, Perforin, CD49d, CD85j, CD38, CD27, Granzyme B, CD57, CD25, CD69, CD154, CD56, HLA-DR, and TCRγ6) and overlaid onto the viSNE map. […] Color plots by the 18 intracellular markers show the phenotype across viSNE ‘islands’ (FIG. 84B). Red represents high expression and blue represents low expression for each marker. Highlighted region with arrow indicates cells expressing the naïve T cell marker CD45RA.

[4] abbreviates: human primary B cells, target:effector 5:1, 3 hours.

B1: CER21: Tim4 binding and transmembrane domains, TLR8 signaling domain; SEQ ID NO:88 (protein)
chain: MSKGLLLLWLVTELWWLYLTPAASEDTIIGFLGQPVTLPCHYLSWSQSRNSMCWGKGSCPNSKCNAELLRTDGTRIISRKSTKYTLLGKVQFGEVSLTISNTNRGDSGVYCCRIEVPGWFNDVKKNVRLELRRATTTKKPTTTTRPTTTPYVTTTTPELLPTTVMTTSVLPTTTPPQTLATTAFSTAVTTCPSTTPGSFSQETTKGSAFTTESETLPASNHSQRSMMTISTDIAVLRPTGSNPGILPSTSQLTTQKTTLTTSESLQKTTKSHQINSRQTILIIACCVGFVLMVLLFLAFLHHLFYWDVWFIYNVCLAKVKGYRSLSTSQTFYDAYISYDTKDASVTDWVINELRYHLEESRDKNVLLCLEERDWDPGLAIIDNLMQSINQSKKTVFVLTKKYAKSWNFKTAFYLALQRLMDENMDVIIFILLEPVLQHSQYLRLRQRICKSSILQWPDNPKAEGLFWQTLRNVVLTENDSRYNNMYVDSIKQY
modifications: CER21 chimeric engulfment receptor
Regarding B1, the “luminal content degradation over time” value in assay [1] was “broken down over-time”. Moreover, in assay [2] (setting [4]), the “in vitro cytolysis of engulfed Jurkat cells” value is given as “in vitro cytolysis of Jurkat cells” and the “in vitro phagocytosis of Jurkat cells” value was “in vitro phagocytosis”. The “killing of target cells (apoptotic cells and fluorescence per high power view)” value in assay [2] (staurosporine treated (subtherapeutic dose) Jurkat cells) is reported as “enhanced killing of target cells”.

B2: CER104: Tim4 binding and transmembrane domains, TLR8 primary and DAP12 secondary signaling domains; SEQ ID NO:133 (protein)
chain: MSKGLLLLWLVTELWWLYLTPAASEDTIIGFLGQPVTLPCHYLSWSQSRNSMCWGKGSCPNSKCNAELLRTDGTRIISRKSTKYTLLGKVQFGEVSLTISNTNRGDSGVYCCRIEVPGWFNDVKKNVRLELRRATTTKKPTTTTRPTTTPYVTTTTPELLPTTVMTTSVLPTTTPPQTLATTAFSTAVTTCPSTTPGSFSQETTKGSAFTTESETLPASNHSQRSMMTISTDIAVLRPTGSNPGILPSTSQLTTQKTTLTTSESLQKTTKSHQINSRQTILIIACCVGFVLMVLLFLAFLHHLFYWDVWFIYNVCLAKVKGYRSLSTSQTFYDAYISYDTKDASVTDWVINELRYHLEESRDKNVLLCLEERDWDPGLAIIDNLMQSINQSKKTVFVLTKKYAKSWNFKTAFYLALQRLMDENMDVIIFILLEPVLQHSQYLRLRQRICKSSILQWPDNPKAEGLFWQTLRNVVLTENDSRYNNMYVDSIKQYYFLGRLVPRGRGAAEAATRKQRITETESPYQELQGQRSDVYSDLNTQRPYYK
modifications: CER104 protein
Consider B2, for which the “memory formation after antigen encounter” value in assay [3] (CD4+ T cells) was “associated with memory formation after antigen encounter”. For the same molecule, in assay [3] (CD4+ T cells after antigen encounter), the “viSNE islands expressing T cell activation marker CD69” value is recorded as “enrichment of islands expressing the T cell activation marker CD69”. Further, the “viSNE islands expressing intracellular marker IFNγ” value in assay [3] (CD4+ T cells after co-culture with E7 TCR CD8+ T cells and SCC152 cells) is “enrichment of islands expressing the intracellular marker IFNγ”. The “viSNE islands expressing naïve T cell marker CD45RA within the CCR7+ population” value in assay [3] (compared to controls) was “loss of islands expressing the naïve T cell marker CD45RA”.
